Laboratory results taken from US20260055162A1.

What was measured:
Test in all cases: cell-based or functional assay
[1] = target: AA-TGFB-019 (TGFB-019), TGF-BR2 ECD-CD28 TM-CD28 ICD
[2] = target: AA-TGFB-051 (TGFB-051), TGF-BR2 ECD-CD28 TM-DAP10v2 ICD
[3] = target: AA-TGFB-056 (TGFB-056), TGF-BR2 ECD-CD28 Long TM-SLP76 ICD
[4] = target: AA-TGFB-057 (TGFB-057), TGF-BR2 ECD-CD28 Long TM-MYD88 ICD
[5] = target: AA-TGFB-059 (TGFB-059), TGF-BR2 ECD-CD28 Long TM-TRAF1 ICD
[6] = target: AA-TGFB-060 (TGFB-060), TGF-BR2 ECD-CD28 Long TM-TRAF2 ICD
AA-TGFB-060 (TGFB-060), TGF-BR2 ECD-CD28 Long TM-TRAF2 ICD, sequence (chain, as listed by the source limits assumed, form in doubt): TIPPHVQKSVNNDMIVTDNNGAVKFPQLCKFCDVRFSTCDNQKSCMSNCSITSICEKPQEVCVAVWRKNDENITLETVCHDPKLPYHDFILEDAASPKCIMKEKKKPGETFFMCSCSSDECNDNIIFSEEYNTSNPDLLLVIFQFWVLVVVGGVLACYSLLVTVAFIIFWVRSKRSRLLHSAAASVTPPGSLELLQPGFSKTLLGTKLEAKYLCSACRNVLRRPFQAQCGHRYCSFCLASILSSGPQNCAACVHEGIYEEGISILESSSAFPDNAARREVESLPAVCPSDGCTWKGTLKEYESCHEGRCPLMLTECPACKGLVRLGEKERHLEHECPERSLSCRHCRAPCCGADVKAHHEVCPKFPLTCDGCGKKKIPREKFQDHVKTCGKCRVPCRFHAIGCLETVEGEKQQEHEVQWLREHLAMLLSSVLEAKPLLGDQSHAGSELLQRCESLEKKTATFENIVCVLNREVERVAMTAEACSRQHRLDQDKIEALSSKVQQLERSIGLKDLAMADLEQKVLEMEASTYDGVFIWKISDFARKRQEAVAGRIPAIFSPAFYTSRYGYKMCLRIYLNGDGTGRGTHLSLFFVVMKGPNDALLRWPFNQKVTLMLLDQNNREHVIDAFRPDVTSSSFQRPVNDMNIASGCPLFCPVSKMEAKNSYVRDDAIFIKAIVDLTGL

[7] = target: AA-TGFB-061 (TGFB-061), TGF-BR2 ECD-CD28 Long TM-TRAF3 ICD
AA-TGFB-061 (TGFB-061), TGF-BR2 ECD-CD28 Long TM-TRAF3 ICD, sequence (chain, as listed by the source limits assumed, form in doubt): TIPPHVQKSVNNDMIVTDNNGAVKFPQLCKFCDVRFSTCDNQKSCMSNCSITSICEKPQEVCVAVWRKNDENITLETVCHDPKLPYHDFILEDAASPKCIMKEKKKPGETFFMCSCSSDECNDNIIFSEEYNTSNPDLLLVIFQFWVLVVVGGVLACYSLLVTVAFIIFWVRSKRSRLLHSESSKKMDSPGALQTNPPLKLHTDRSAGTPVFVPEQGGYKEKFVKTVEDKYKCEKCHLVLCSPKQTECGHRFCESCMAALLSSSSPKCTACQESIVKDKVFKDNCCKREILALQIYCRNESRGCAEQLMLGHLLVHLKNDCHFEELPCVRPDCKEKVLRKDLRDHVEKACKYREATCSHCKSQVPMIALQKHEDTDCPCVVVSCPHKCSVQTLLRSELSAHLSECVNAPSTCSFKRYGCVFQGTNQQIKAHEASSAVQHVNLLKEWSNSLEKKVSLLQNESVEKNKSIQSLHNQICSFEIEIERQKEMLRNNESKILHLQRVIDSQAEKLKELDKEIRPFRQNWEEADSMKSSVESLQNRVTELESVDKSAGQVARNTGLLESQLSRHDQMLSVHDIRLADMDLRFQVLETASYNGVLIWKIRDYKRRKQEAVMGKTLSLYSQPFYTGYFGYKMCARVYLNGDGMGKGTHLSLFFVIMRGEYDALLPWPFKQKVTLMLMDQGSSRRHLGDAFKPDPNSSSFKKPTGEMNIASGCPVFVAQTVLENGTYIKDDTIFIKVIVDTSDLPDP

[8] = target: AA-TGFB-062 (TGFB-062), TGF-BR2 ECD-CD28 Long TM-TRAF6 ICD
[9] = target: AA-TGFB-067 (TGFB-067), TGF-BR2 ECD-FCGR2A TM-FCGR2A ICD
AA-TGFB-067 (TGFB-067), TGF-BR2 ECD-FCGR2A TM-FCGR2A ICD, sequence (chain, as listed by the source limits assumed, form in doubt): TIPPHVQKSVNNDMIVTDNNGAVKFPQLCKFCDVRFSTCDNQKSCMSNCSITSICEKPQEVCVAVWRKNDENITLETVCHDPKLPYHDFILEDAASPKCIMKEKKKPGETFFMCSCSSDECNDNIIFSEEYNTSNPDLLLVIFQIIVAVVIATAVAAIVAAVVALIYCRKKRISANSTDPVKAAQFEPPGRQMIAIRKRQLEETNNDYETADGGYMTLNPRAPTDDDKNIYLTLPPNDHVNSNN

[10] = target: AA-TGFB-069 (TGFB-069), TGF-BR2 ECD-2B4 TM-2B4 ICD
AA-TGFB-069 (TGFB-069), TGF-BR2 ECD-2B4 TM-2B4 ICD, sequence (chain, as listed by the source limits assumed, form in doubt): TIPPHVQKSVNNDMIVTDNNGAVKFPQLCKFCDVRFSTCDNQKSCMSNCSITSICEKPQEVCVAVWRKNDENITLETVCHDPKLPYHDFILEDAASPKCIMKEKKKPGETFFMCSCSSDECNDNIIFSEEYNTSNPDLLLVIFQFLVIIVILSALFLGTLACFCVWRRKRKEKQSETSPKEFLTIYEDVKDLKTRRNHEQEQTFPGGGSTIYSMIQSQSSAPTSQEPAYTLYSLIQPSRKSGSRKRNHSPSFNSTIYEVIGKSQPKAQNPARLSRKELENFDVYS

[11] = target: AA-TGFB-070 (TGFB-070), TGF-BR2 ECD-SLAMF1 TM-SLAMF1 ICD
AA-TGFB-070 (TGFB-070), TGF-BR2 ECD-SLAMF1 TM-SLAMF1 ICD, sequence (chain, as listed by the source limits assumed, form in doubt): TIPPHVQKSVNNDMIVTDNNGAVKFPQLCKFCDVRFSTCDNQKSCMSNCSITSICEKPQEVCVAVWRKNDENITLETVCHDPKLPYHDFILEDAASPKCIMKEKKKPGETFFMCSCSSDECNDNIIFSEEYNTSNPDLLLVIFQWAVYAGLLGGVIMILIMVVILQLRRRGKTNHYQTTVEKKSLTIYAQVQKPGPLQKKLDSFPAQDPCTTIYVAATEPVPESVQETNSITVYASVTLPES

[12] = target: AA-TGFB-071 (TGFB-071), TGF-BR2 ECD-SLAMF5 TM-SLAMF5 ICD
[13] = target: AA-TGFB-072 (TGFB-072), TGF-BR2 ECD-SLAMF6 TM-SLAMF6 ICD
AA-TGFB-072 (TGFB-072), TGF-BR2 ECD-SLAMF6 TM-SLAMF6 ICD, sequence (chain, as listed by the source limits assumed, form in doubt): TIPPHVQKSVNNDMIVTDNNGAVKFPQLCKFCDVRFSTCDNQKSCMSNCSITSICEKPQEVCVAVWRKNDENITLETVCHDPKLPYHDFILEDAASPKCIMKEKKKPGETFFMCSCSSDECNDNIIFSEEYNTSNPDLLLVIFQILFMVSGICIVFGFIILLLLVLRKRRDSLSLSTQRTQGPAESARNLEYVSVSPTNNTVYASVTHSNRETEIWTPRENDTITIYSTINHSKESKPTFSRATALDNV

[14] = target: AA-TGFB-075 (TGFB-075), TGF-BR2 ECD-SLAMF3 TM-SLAMF3 ICD
AA-TGFB-075 (TGFB-075), TGF-BR2 ECD-SLAMF3 TM-SLAMF3 ICD, sequence (chain, as listed by the source limits assumed, form in doubt): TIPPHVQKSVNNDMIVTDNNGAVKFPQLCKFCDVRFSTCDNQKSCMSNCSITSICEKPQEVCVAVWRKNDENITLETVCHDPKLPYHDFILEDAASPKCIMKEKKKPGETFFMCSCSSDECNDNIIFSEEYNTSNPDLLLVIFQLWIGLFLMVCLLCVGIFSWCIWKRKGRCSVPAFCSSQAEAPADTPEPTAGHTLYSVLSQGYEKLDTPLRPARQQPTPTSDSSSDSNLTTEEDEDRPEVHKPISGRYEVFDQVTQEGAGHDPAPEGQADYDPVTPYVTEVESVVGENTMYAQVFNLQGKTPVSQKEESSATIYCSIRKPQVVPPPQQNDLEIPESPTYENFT

[15] = target: AA-TGFB-076 (TGFB-076), TGF-BR2 ECD-EPOR TM-EPOR ICD
[16] = target: AA-TGFB-077 (TGFB-077), TGF-BR2 ECD-GCSFR TM-GCSFR ICD
AA-TGFB-077 (TGFB-077), TGF-BR2 ECD-GCSFR TM-GCSFR ICD, sequence (chain, as listed by the source limits assumed, form in doubt): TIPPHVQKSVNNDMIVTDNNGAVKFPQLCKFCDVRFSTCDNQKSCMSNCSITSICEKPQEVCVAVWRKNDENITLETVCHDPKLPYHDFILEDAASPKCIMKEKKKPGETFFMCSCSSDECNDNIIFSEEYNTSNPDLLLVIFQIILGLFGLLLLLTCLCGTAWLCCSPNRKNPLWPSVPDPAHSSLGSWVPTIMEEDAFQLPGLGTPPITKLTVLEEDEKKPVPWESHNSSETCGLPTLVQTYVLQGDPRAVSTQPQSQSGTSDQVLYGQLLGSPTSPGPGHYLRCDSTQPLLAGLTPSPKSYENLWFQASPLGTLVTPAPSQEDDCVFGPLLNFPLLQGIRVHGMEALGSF

[17] = target: AA-TGFB-078 (TGFB-078), TGF-BR2 ECD-CSF1R TM-CSF1R ICD
[18] = target: AA-TGFB-079 (TGFB-079), TGF-BR2 ECD-FGFR1 TM-FGFR1 ICD
AA-TGFB-079 (TGFB-079), TGF-BR2 ECD-FGFR1 TM-FGFR1 ICD, sequence (chain, as listed by the source limits assumed, form in doubt): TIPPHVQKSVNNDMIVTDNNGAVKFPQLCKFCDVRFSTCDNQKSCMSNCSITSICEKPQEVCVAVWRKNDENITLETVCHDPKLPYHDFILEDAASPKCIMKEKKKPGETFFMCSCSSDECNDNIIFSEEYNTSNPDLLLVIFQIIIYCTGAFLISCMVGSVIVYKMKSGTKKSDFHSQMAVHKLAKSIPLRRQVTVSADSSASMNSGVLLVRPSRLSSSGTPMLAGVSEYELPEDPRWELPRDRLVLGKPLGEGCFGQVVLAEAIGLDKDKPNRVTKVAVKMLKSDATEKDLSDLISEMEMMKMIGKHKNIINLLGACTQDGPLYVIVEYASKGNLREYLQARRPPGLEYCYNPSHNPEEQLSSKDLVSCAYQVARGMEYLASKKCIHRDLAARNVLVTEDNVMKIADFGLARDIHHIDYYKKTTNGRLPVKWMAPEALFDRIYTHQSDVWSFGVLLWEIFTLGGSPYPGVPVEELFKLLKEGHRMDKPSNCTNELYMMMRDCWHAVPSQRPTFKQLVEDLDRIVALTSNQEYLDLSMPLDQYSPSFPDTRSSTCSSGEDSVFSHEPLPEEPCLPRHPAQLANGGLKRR

[19] = target: AA-TGFB-082 (TGFB-082), TGF-BR2 ECD-NKp46 TM-NKp46 ICD
AA-TGFB-082 (TGFB-082), TGF-BR2 ECD-NKp46 TM-NKp46 ICD, sequence (chain, as listed by the source limits assumed, form in doubt): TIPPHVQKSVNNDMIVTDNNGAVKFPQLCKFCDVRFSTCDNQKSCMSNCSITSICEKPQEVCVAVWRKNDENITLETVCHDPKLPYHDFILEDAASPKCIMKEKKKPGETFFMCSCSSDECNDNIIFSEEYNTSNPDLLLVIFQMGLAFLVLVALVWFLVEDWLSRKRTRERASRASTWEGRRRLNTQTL

[20] = target: AA-TGFB-083 (TGFB-083), TGF-BR2 ECD-NKp44 TM-NKp44 ICD
AA-TGFB-083 (TGFB-083), TGF-BR2 ECD-NKp44 TM-NKp44 ICD, sequence (chain, as listed by the source limits assumed, form in doubt): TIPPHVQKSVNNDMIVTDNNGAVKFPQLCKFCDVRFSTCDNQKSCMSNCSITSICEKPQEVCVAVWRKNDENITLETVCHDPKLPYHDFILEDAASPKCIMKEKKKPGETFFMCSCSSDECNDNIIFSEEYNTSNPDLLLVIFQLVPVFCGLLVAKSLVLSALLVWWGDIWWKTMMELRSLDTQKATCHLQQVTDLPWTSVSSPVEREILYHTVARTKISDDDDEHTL

[21] = target: AA-TGFB-086 (TGFB-086), TGF-BR2 ECD-CD28 Long TM-IRAK4 ICD
AA-TGFB-086 (TGFB-086), TGF-BR2 ECD-CD28 Long TM-IRAK4 ICD, sequence (chain, as listed by the source limits assumed, form in doubt): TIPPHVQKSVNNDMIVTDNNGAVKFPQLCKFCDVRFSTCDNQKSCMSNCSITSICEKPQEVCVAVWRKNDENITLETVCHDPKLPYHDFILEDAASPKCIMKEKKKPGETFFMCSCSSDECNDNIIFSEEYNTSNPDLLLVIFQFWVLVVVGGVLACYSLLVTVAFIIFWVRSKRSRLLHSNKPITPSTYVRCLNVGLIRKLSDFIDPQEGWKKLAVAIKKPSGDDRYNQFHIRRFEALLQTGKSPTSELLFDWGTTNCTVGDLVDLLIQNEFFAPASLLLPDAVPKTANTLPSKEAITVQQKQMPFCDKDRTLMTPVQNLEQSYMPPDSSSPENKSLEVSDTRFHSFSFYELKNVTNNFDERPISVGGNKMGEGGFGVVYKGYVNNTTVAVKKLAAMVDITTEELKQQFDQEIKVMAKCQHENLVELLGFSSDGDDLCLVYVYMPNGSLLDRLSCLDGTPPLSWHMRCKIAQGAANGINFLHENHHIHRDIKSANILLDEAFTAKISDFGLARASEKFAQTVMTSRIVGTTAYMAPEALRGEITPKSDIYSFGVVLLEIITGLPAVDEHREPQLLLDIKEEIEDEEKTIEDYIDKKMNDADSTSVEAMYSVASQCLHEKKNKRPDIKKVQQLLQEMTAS

[22] = target: AA-TGFB-088 (TGFB-088), TGF-BR2 ECD-DR3 TM-DR3 ICD
[23] = target: AA-TGFB-091 (TGFB-091), TGF-BR2 ECD-CD28 Long TM-Syk ICD
[24] = target: AA-TGFB-095 (TGFB-095), TGF-BR2 ECD-CD28 Long TM-YES1 ICD

recombinant TGF-B1 cytokine, sequence (P01137 279-390 limits assumed): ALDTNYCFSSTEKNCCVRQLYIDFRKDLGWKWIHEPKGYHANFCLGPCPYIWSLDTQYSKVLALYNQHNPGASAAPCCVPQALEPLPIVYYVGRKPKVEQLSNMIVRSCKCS

5-Day Fold Expansion of NK cells, 10 ng/mL TGF-B1 [1]: 1.99 fold
Average IFNg Secretion, 10 ng/mL TGF-B1 [1]: 6700 pg/mL
Average IP-10 Secretion, 10 ng/mL TGF-B1 [1]: 1170
5-Day Fold Expansion of NK cells, 10 ng/mL TGF-B1 [2]: 1.42 fold
Average IFNg Secretion, 10 ng/mL TGF-B1 [2]: 4200 pg/mL
Average IP-10 Secretion, 10 ng/mL TGF-B1 [2]: 671
5-Day Fold Expansion of NK cells, 10 ng/mL TGF-B1 [3]: 0.41 fold
Average IFNg Secretion, 10 ng/mL TGF-B1 [3]: 1.68 pg/mL
5-Day Fold Expansion of NK cells, 10 ng/mL TGF-B1 [4]: 1.02 fold
Average IFNg Secretion, 10 ng/mL TGF-B1 [4]: 7770 pg/mL
Average IP-10 Secretion, 10 ng/mL TGF-B1 [4]: 2760
5-Day Fold Expansion of NK cells, 10 ng/mL TGF-B1 [5]: 0.9 fold
Average IFNg Secretion, 10 ng/mL TGF-B1 [5]: 3060 pg/mL
Average IP-10 Secretion, 10 ng/mL TGF-B1 [5]: 1300
5-Day Fold Expansion of NK cells, 10 ng/mL TGF-B1 [6]: 1.11 fold
Average IFNg Secretion, 10 ng/mL TGF-B1 [6]: 3070 pg/mL
Average IP-10 Secretion, 10 ng/mL TGF-B1 [6]: 1230
5-Day Fold Expansion of NK cells, 10 ng/mL TGF-B1 [7]: 1.29 fold
Average IFNg Secretion, 10 ng/mL TGF-B1 [7]: 3090 pg/mL
Average IP-10 Secretion, 10 ng/mL TGF-B1 [7]: 762
5-Day Fold Expansion of NK cells, 10 ng/mL TGF-B1 [8]: 1.41 fold
Average IFNg Secretion, 10 ng/mL TGF-B1 [8]: 3010 pg/mL
Average IP-10 Secretion, 10 ng/mL TGF-B1 [8]: 1370
5-Day Fold Expansion of NK cells, 10 ng/mL TGF-B1 [9]: 1.6 fold
Average IFNg Secretion, 10 ng/mL TGF-B1 [9]: 4640 pg/mL
Average IP-10 Secretion, 10 ng/mL TGF-B1 [9]: 1040
5-Day Fold Expansion of NK cells, 10 ng/mL TGF-B1 [10]: 3.86 fold
Average IFNg Secretion, 10 ng/mL TGF-B1 [10]: > 9000 pg/mL
Average IP-10 Secretion, 10 ng/mL TGF-B1 [10]: 2340
5-Day Fold Expansion of NK cells, 10 ng/mL TGF-B1 [11]: 4.03 fold
Average IFNg Secretion, 10 ng/mL TGF-B1 [11]: 7690 pg/mL
Average IP-10 Secretion, 10 ng/mL TGF-B1 [11]: 1630
5-Day Fold Expansion of NK cells, 10 ng/mL TGF-B1 [12]: 3.06 fold
Average IFNg Secretion, 10 ng/mL TGF-B1 [12]: > 9000 pg/mL
Average IP-10 Secretion, 10 ng/mL TGF-B1 [12]: 2300
5-Day Fold Expansion of NK cells, 10 ng/mL TGF-B1 [13]: 3.89 fold
Average IFNg Secretion, 10 ng/mL TGF-B1 [13]: 8700 pg/mL
Average IP-10 Secretion, 10 ng/mL TGF-B1 [13]: 1880
5-Day Fold Expansion of NK cells, 10 ng/mL TGF-B1 [14]: 3.86 fold
Average IFNg Secretion, 10 ng/mL TGF-B1 [14]: 4420 pg/mL
Average IP-10 Secretion, 10 ng/mL TGF-B1 [14]: 1040
5-Day Fold Expansion of NK cells, 10 ng/mL TGF-B1 [15]: 2.94 fold
Average IFNg Secretion, 10 ng/mL TGF-B1 [15]: 6650 pg/mL
Average IP-10 Secretion, 10 ng/mL TGF-B1 [15]: 1340
5-Day Fold Expansion of NK cells, 10 ng/mL TGF-B1 [16]: 2.52 fold
Average IFNg Secretion, 10 ng/mL TGF-B1 [16]: 6640 pg/mL
Average IP-10 Secretion, 10 ng/mL TGF-B1 [16]: 1410
5-Day Fold Expansion of NK cells, 10 ng/mL TGF-B1 [17]: 2.14 fold
Average IFNg Secretion, 10 ng/mL TGF-B1 [17]: 6320 pg/mL
Average IP-10 Secretion, 10 ng/mL TGF-B1 [17]: 1000
5-Day Fold Expansion of NK cells, 10 ng/mL TGF-B1 [18]: 1.49 fold
Average IFNg Secretion, 10 ng/mL TGF-B1 [18]: 3580 pg/mL
Average IP-10 Secretion, 10 ng/mL TGF-B1 [18]: 685
5-Day Fold Expansion of NK cells, 10 ng/mL TGF-B1 [19]: 3.26 fold
Average IFNg Secretion, 10 ng/mL TGF-B1 [19]: 7170 pg/mL
Average IP-10 Secretion, 10 ng/mL TGF-B1 [19]: 1350
5-Day Fold Expansion of NK cells, 10 ng/mL TGF-B1 [20]: 2.08 fold
Average IFNg Secretion, 10 ng/mL TGF-B1 [20]: 3960 pg/mL
Average IP-10 Secretion, 10 ng/mL TGF-B1 [20]: 968
5-Day Fold Expansion of NK cells, 10 ng/mL TGF-B1 [21]: 1.76 fold
Average IFNg Secretion, 10 ng/mL TGF-B1 [21]: 3150 pg/mL
Average IP-10 Secretion, 10 ng/mL TGF-B1 [21]: 938
5-Day Fold Expansion of NK cells, 10 ng/mL TGF-B1 [22]: 0.66 fold
5-Day Fold Expansion of NK cells, 10 ng/mL TGF-B1 [23]: 0.24 fold
5-Day Fold Expansion of NK cells, 10 ng/mL TGF-B1 [24]: 1.69 fold
Average IFNg Secretion, 10 ng/mL TGF-B1 [24]: 6080 pg/mL
Average IP-10 Secretion, 10 ng/mL TGF-B1 [24]: 1890
Substance: recombinant TGF-B1 cytokine (from UniProt P01137 279-390) (ligand)
Average % Killing (SKOV-3), 10 ng/mL TGF-B1 [1]: 21.1%
Average % Killing (SKOV-3), 10 ng/mL TGF-B1 [2]: 11.4%
Average % Killing (SKOV-3), 10 ng/mL TGF-B1 [3]: 2.07%
Average % Killing (SKOV-3), 10 ng/mL TGF-B1 [4]: 11.2%
Average % Killing (SKOV-3), 10 ng/mL TGF-B1 [5]: 7.99%
Average % Killing (SKOV-3), 10 ng/mL TGF-B1 [6]: 8.77%
Average % Killing (SKOV-3), 10 ng/mL TGF-B1 [7]: 8.9%
Average % Killing (SKOV-3), 10 ng/mL TGF-B1 [8]: 8.4%
Average % Killing (SKOV-3), 10 ng/mL TGF-B1 [9]: 11.8%
Average % Killing (SKOV-3), 10 ng/mL TGF-B1 [10]: 14.4%
Average % Killing (SKOV-3), 10 ng/mL TGF-B1 [11]: 13.2%
Average % Killing (SKOV-3), 10 ng/mL TGF-B1 [12]: 18.8%
Average % Killing (SKOV-3), 10 ng/mL TGF-B1 [13]: 15%
Average % Killing (SKOV-3), 10 ng/mL TGF-B1 [14]: 9.64%
Average % Killing (SKOV-3), 10 ng/mL TGF-B1 [15]: 14.3%
Average % Killing (SKOV-3), 10 ng/mL TGF-B1 [16]: 14.4%
Average % Killing (SKOV-3), 10 ng/mL TGF-B1 [17]: 15.2%
Average % Killing (SKOV-3), 10 ng/mL TGF-B1 [18]: 9.28%
Average % Killing (SKOV-3), 10 ng/mL TGF-B1 [19]: 20.4%
Average % Killing (SKOV-3), 10 ng/mL TGF-B1 [20]: 14.1%
Average % Killing (SKOV-3), 10 ng/mL TGF-B1 [21]: 7.83%
Average % Killing (SKOV-3), 10 ng/mL TGF-B1 [22]: 2.23%
Average % Killing (SKOV-3), 10 ng/mL TGF-B1 [23]: 1.9%
Average % Killing (SKOV-3), 10 ng/mL TGF-B1 [24]: 11.8%
